Assay [1] has as its target FLAG-tagged rat AT1a receptor DRY/AAY, full length (rat) (UniProt P25095). Put plainly: radioligand binding; whole-cell heterologous competition on transfected COS-7 cells: 1 nM 3H-Ang II tracer and increasing unlabeled SII Ang II, 3 h at 4°C; pKi calculated from Ang II KD values of experiments run in parallel.
The target in assay [2] is FLAG-tagged rat AT1a receptor DRY/AAY truncated after serine 331 (DRY/AAY 331Δ) (rat) (UniProt P25095). The description is as above.
In assay [3] the target is Luc-tagged rat AT1a receptor DRY/AAY truncated after serine 331 (DRY/AAY 331Δ) (rat) (UniProt P25095). The assay is described as follows: FRET or BRET; BRET2 in live HEK293 cells co-transfected with Luc-tagged rAT1aR and GFP2-β-arrestin2; dose-response to SII Ang II, read 15 min after agonist addition.
Assay [4] concerns the target Luc-tagged rat AT1a receptor DRY/AAY, full length (rat) (UniProt P25095). The description is as above.
In assay [5] the target is Luc-tagged rat AT1a receptor DRY/AAY truncated after serine 331 (DRY/AAY 331Δ) (rat) (UniProt P25095). Put plainly: FRET or BRET; BRET2 in live HEK293 cells co-transfected with Luc-tagged rAT1aR and GFP2-β-arrestin2; dose-response to Ang II, read 15 min after agonist addition. A general note: In BRET a luciferase serves as donor, and the signal depends on an acceptor being close.

Assay [6] concerns the target Luc-tagged rat AT1a receptor DRY/AAY, full length (rat) (UniProt P25095). Described as above.
The target in assay [7] is T1, FLAG-tagged rat AT1a receptor (rAT1aR), WT, full length (rat, UniProt P25095 1-359).
T1 construct: Angiotensin II type 1a receptor (AT1aR), rat, full length; also called AT1R; Angiotensin II type 1 receptor; source: COS-7, transiently transfected, on whole cells; not shown: FLAG, N-terminal, kept
T1 sequence (looked up): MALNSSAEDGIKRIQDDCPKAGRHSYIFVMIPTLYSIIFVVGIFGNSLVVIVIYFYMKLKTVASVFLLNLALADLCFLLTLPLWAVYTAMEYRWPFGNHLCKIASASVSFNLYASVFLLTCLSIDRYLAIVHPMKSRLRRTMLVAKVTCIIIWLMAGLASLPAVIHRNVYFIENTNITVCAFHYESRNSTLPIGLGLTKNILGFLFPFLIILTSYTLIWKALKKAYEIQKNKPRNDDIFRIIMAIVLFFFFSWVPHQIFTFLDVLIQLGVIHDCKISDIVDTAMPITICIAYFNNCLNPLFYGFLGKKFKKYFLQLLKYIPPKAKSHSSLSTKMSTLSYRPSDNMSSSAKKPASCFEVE
The assay is described as follows: radioligand binding; whole-cell heterologous competition on transfected COS-7 cells: 1 nM 3H-Ang II tracer and increasing unlabeled SII Ang II, 3 h at 4°C; pKi calculated from Ang II KD values of experiments run in parallel. The settings on record: one partner purified.

Assay [8] has as its target T2, FLAG-tagged rat AT1a receptor WT truncated after serine 331 (WT 331Δ) (rat, UniProt P25095 1-331).
T2 construct: source: COS-7, transiently transfected, on whole cells; not shown: FLAG, N-terminal, kept
T2 sequence (looked up): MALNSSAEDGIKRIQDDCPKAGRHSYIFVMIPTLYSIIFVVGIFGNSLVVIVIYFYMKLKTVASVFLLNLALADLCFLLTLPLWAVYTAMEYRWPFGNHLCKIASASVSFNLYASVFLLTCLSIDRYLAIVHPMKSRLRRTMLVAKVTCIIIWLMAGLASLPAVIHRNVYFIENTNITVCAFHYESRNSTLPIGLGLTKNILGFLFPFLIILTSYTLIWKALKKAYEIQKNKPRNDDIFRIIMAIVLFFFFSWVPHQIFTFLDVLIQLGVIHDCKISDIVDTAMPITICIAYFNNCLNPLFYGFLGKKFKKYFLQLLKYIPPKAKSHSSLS
Described as above. The settings on record: one partner purified.

Take Sar1-Ile4-Ile8 (SII) Ang II (peptide): the negative-log Ki (pKi) in assay [1] is 6.1; in assay [2], 6.2.

As to “GFP2-tagged β-arrestin2 (from UniProt P32121 1-409) (natural protein)”, the pEC50 of SII Ang II for induced recruitment (BRET2, from normalized curves) in assay [3] was determined as 7. Further, the pEC50 of SII Ang II for induced recruitment (BRET2) in assay [4] amounted to 7.5. Moreover, the pEC50 of Ang II for induced recruitment (BRET2) in assay [5] and in assay [6] was 8.2 throughout.

B1: Sar1-Ile4-Ile8 (SII) Ang II (peptide)
chain: GRVIIHPI
modifications: sarcosine at position 1 (Sar1)
Turning to B1, the pKi in assay [7] was 5.9; in assay [8] it was 6.

A word on the pKi: it is −log10 of the Ki, conventionally taken in molar units.

These data come from publication PMC2994726 (PLoS ONE, 2010).
